Data on two proteins can be found in publication PMC9744887, “Structural mechanism of signal transduction in a phytochrome histidine kinase” (Nature Communications, 2022).

The series concerns the molecule itself. The series can be described thus: cryo-EM structure; single-particle cryo-EM of DrBphP-DrRR in the Pr state: 780 nm far-red light on the grid; 1-1.5 mg/ml protein with 10 mM CaCl2, 10 mM MgCl2, 4 mM AMP-PNP; Vitrobot at 4 °C; no symmetry imposed.

B1: DrBphP-DrRR fusion protein (Deinococcus radiodurans phytochrome fused to its response regulator by a 12 amino acid tether) (other)
chain: MSRDPLPFFPPLYLGGPEITTENCEREPIHIPGSIQPHGALLTADGHSGEVLQMSLNAATFLGQEPTVLRGQTLAALLPEQWPALQAALPPGCPDALQYRATLDWPAAGHLSLTVHRVGELLILEFEPTEAWDSTGPHALRNAMFALESAPNLRALAEVATQTVRELTGFDRVMLYKFAPDATGEVIAEARREGLHAFLGHRFPASDIPAQARALYTRHLLRLTADTRAAAVPLDPVLNPQTNAPTPLGGAVLRATSPMHMQYLRNMGVGSSLSVSVVVGGQLWGLIACHHQTPYVLPPDLRTTLEYLGRLLSLQVQVKEAADVAAFRQSLREHHARVALAAAHSLSPHDTLSDPALDLLGLMRAGGLILRFEGRWQTLGEVPPAPAVDALLAWLETQPGALVQTDALGQLWPAGADLAPSAAGLLAISVGEGWSECLVWLRPELRLEVAWGGATPDQAKDDLGPRHSFDTYLEEKRGYAEPWHPGEIEEAQDLRDTLTGALGERLSVIRDLNRALTQSNAEWRQYGFVISHHMQEPVRLISQFAELLTRQPRAQDGSPDSPQTERITGFLLRETSRLRSLTQDLHTYTALLSAPPPVRRPTPLGRVVDDVLQDLEPRIADTGASIEVAPELPVIAADAGLLRDLLLHLIGNALTFGGPEPRIAVRTERQGAGWSIAVSDQGAGIAPEYQERIFLLFQRLGSLDEALGNGLGLPLCRKIAELHGGTLTVESAPGEGSTFRCWLPDAGPLPGAADAASSAGGSAGSAGMPERASVPLRLLLVEDNAADIFLMEMALEYSSVHTELLVARDGLEALELLEQAKTGGPFPDLILLDLNMPRVDGFELLQALRADPHLAHLPAIVLTTSNDPSDVKRAYALQANSYLTKPSTLEDFLQLIERLTAYWFGTAAIPQTYQPQ
modifications: biliverdin (BV) chromophore; lysate incubated with a molar excess of biliverdin hydrochloride
notes: 938-aa construct in pET21b(+), counting the N-terminal T7-tag and the C-terminal His6-tag; Models were built up to Leu591 (Pr) and for residues 22-521 (Pfr); also called full-length DrBphP-DrRR; source: E. coli BL21 (DE3), purified (NiNTA, size-exclusion chromatography)
Take B1: the “stoichiometry N” value came to 2.

B2: Phytochrome from Deinococcus radiodurans (DrBphP), as the phytochrome part of the DrBphP-DrRR fusion (enzyme)
chain: MSRDPLPFFPPLYLGGPEITTENCEREPIHIPGSIQPHGALLTADGHSGEVLQMSLNAATFLGQEPTVLRGQTLAALLPEQWPALQAALPPGCPDALQYRATLDWPAAGHLSLTVHRVGELLILEFEPTEAWDSTGPHALRNAMFALESAPNLRALAEVATQTVRELTGFDRVMLYKFAPDATGEVIAEARREGLHAFLGHRFPASDIPAQARALYTRHLLRLTADTRAAAVPLDPVLNPQTNAPTPLGGAVLRATSPMHMQYLRNMGVGSSLSVSVVVGGQLWGLIACHHQTPYVLPPDLRTTLEYLGRLLSLQVQVKEAADVAAFRQSLREHHARVALAAAHSLSPHDTLSDPALDLLGLMRAGGLILRFEGRWQTLGEVPPAPAVDALLAWLETQPGALVQTDALGQLWPAGADLAPSAAGLLAISVGEGWSECLVWLRPELRLEVAWGGATPDQAKDDLGPRHSFDTYLEEKRGYAEPWHPGEIEEAQDLRDTLTGALGERLSVIRDLNRALTQSNAEWRQYGFVISHHMQEPVRLISQFAELLTRQPRAQDGSPDSPQTERITGFLLRETSRLRSLTQDLHTYTALLSAPPPVRRPTPLGRVVDDVLQDLEPRIADTGASIEVAPELPVIAADAGLLRDLLLHLIGNALTFGGPEPRIAVRTERQGAGWSIAVSDQGAGIAPEYQERIFLLFQRLGSLDEALGNGLGLPLCRKIAELHGGTLTVESAPGEGSTFRCWLPDAGPLPGAADA
modifications: biliverdin (BV) chromophore; lysate incubated with a molar excess of biliverdin hydrochloride
notes: see m1; also called full-length DrBphP; source: E. coli BL21 (DE3), purified (NiNTA, size-exclusion chromatography), as part of the fusion m1
With B2, the binding result is “binds”.
